Changes are numbered by the printed parent chain. Numbers in names are those of the source.
T1: PUF4 RNA-binding domain (Saccharomyces cerevisiae, UniProt P25339 537-888)
T1 sequence: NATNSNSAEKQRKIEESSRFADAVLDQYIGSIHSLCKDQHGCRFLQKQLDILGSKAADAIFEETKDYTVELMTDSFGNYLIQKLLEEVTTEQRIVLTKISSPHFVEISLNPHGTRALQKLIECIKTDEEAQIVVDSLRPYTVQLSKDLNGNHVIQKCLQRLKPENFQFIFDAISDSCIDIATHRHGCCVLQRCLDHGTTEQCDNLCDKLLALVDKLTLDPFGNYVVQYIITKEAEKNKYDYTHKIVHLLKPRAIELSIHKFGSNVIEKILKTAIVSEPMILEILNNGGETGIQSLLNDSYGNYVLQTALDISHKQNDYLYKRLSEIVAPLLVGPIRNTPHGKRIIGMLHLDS

B1: Ic_S2_P4E.1_K4.1_C4.1_H4.1_A4.1_[A6G]_F4.1_[T8A]_[A9T]_T4.1 (ssRNA)
RNA: UUUGAUUAAUAUGAUAUCGUUCUUUCUUGUAUGUAUUUCUUUCUCGAUAUCAUAUUAAUCUUU
B2: Ic_S2_P4E.1_K4.1_C4.1_H4.1_A4.1_[A6T]_[T7C]_F4.1_[T8A]_[A9G]_T4.1 (ssRNA)
RNA: B1 RNA with G33U, U34C, U36G
B3: Ic_S2_P4E.1_K4.1_C4.1_H4.1_A4.1_[A6T]_[T7G]_F4.1_[T8G]_[A9T]_T4.1 (ssRNA)
RNA: B1 RNA with G33U, U34G, A35G
B4: Ic_S2_P4E.1_K4.1_C4.1_H4.1_A4.1_[A6C]_[T7G]_F4.1_[A9C]_T4.1 (ssRNA)
RNA: B1 RNA with G33C, U34G, A35U, U36C
B5: Ic_S2_P4E.1_K4.1_C4.1_H4.1_A4.1_[A6T]_[T7C]_F4.1_[T8A]_T4.1 (ssRNA)
RNA: B1 RNA with G33U, U34C, U36A
B6: Ic_S2_P4E.1_K4.1_C4.1_H4.1_A4.1_[A6T]_F4.1_[T8A]_[A9C]_T4.1 (ssRNA)
RNA: B1 RNA with G33U, U36C
B7: Ic_S2_P4E.1_K4.1_C4.1_H4.1_A4.1_[A6C]_[T7A]_F4.1_[T8A]_[A9C]_T4.1 (ssRNA)
RNA: B1 RNA with G33C, U34A, U36C
B8: Ic_S2_P4E.1_K4.1_C4.1_H4.1_A4.1_[T7G]_F4.1_[T8C]_[A9C]_T4.1 (ssRNA)
RNA: B1 RNA with G33A, U34G, A35C, U36C
B9: Ic_S2_P4E.1_K4.1_C4.1_H4.1_A4.1_[A6C]_F4.1_[T8C]_[A9G]_T4.1 (ssRNA)
RNA: B1 RNA with G33C, A35C, U36G
B10: Ic_S2_P4E.1_K4.1_C4.1_H4.1_A4.1_[A6T]_[T7A]_F4.1_[T8G]_[A9C]_T4.1 (ssRNA)
RNA: B1 RNA with G33U, U34A, A35G, U36C
B11: Ic_S2_P4E.1_K4.1_C4.1_H4.1_A4.1_[A6C]_[T7C]_F4.1_[T8G]_[A9T]_T4.1 (ssRNA)
RNA: B1 RNA with G33C, U34C, A35G
B12: Ic_S2_P4E.1_K4.1_C4.1_H4.1_A4.1_[A6C]_F4.1_[T8A]_[A9G]_T4.1 (ssRNA)
RNA: B1 RNA with G33C, U36G
B13: Ic_S2_P4E.1_K4.1_C4.1_H4.1_A4.1_[A6T]_[T7G]_F4.1_[T8C]_[A9T]_T4.1 (ssRNA)
RNA: B1 RNA with G33U, U34G, A35C
B14: Ic_S2_P4E.1_K4.1_C4.1_H4.1_A4.1_[A6C]_[T7A]_F4.1_[T8C]_T4.1 (ssRNA)
RNA: B1 RNA with G33C, U34A, A35C, U36A
B15: Ic_S2_P4E.1_K4.1_C4.1_H4.1_A4.1_[A6C]_[T7C]_F4.1_[A9C]_T4.1 (ssRNA)
RNA: B1 RNA with G33C, U34C, A35U, U36C
B16: Ic_S2_P4E.1_K4.1_C4.1_H4.1_A4.1_[A6T]_[T7C]_F4.1_[T8A]_[A9T]_T4.1 (ssRNA)
RNA: B1 RNA with G33U, U34C
B17: Ic_S2_P4E.1_K4.1_C4.1_H4.1_A4.1_[A6T]_F4.1_[T8G]_[A9C]_T4.1 (ssRNA)
RNA: B1 RNA with G33U, A35G, U36C
B18: Ic_S2_P4E.1_K4.1_C4.1_H4.1_A4.1_[A6C]_[T7A]_F4.1_[T8C]_[A9T]_T4.1 (ssRNA)
RNA: B1 RNA with G33C, U34A, A35C
B19: Ic_S2_P4E.1_K4.1_C4.1_H4.1_A4.1_[A6C]_F4.1_[T8C]_[A9C]_T4.1 (ssRNA)
RNA: B1 RNA with G33C, A35C, U36C
B20: Ic_S2_P4E.1_K4.1_C4.1_H4.1_A4.1_[A6C]_[T7C]_F4.1_[T8A]_[A9C]_T4.1 (ssRNA)
RNA: B1 RNA with G33C, U34C, U36C
B21: Ic_S2_P4E.1_K4.1_C4.1_H4.1_A4.1_[A6C]_[T7C]_F4.1_[T8G]_[A9G]_T4.1 (ssRNA)
RNA: B1 RNA with G33C, U34C, A35G, U36G
B22: Ic_S2_P4E.1_K4.1_C4.1_H4.1_A4.1_[A6T]_[T7G]_F4.1_[T8G]_[A9C]_T4.1 (ssRNA)
RNA: B1 RNA with G33U, U34G, A35G, U36C
B23: Ic_S2_P4E.1_K4.1_C4.1_H4.1_A4.1_[T7C]_F4.1_[T8G]_[A9C]_T4.1 (ssRNA)
RNA: B1 RNA with G33A, U34C, A35G, U36C
B24: Ic_S2_P4E.1_K4.1_C4.1_H4.1_A4.1_[A6T]_[T7C]_F4.1_[A9C]_T4.1 (ssRNA)
RNA: B1 RNA with G33U, U34C, A35U, U36C
B25: Ic_S2_P4E.1_K4.1_C4.1_H4.1_A4.1_[A6C]_[T7C]_F4.1_[T8A]_T4.1 (ssRNA)
RNA: B1 RNA with G33C, U34C, U36A
B26: Ic_S2_P4E.1_K4.1_C4.1_H4.1_A4.1_[A6C]_[T7A]_F4.1_[A9G]_T4.1 (ssRNA)
RNA: B1 RNA with G33C, U34A, A35U, U36G
B27: Ic_S2_P4E.1_K4.1_C4.1_H4.1_A4.1_[A6T]_F4.1_[T8C]_[A9C]_T4.1 (ssRNA)
RNA: B1 RNA with G33U, A35C, U36C
B28: Ic_S2_P4E.1_K4.1_C4.1_H4.1_A4.1_[A6C]_[T7G]_F4.1_[A9G]_T4.1 (ssRNA)
RNA: B1 RNA with G33C, U34G, A35U, U36G
B29: Ic_S2_P4E.1_K4.1_C4.1_H4.1_A4.1_[A6T]_F4.1_[T8A]_[A9T]_T4.1 (ssRNA)
RNA: B1 RNA with G33U
B30: Ic_S2_P4E.1_K4.1_C4.1_H4.1_A4.1_[A6T]_[T7A]_F4.1_[A9G]_T4.1 (ssRNA)
RNA: B1 RNA with G33U, U34A, A35U, U36G
B31: Ic_S2_P4E.1_K4.1_C4.1_H4.1_A4.1_[A6T]_[T7G]_F4.1_[T8C]_[A9C]_T4.1 (ssRNA)
RNA: B1 RNA with G33U, U34G, A35C, U36C
B32: Ic_S2_P4E.1_K4.1_C4.1_H4.1_A4.1_[T7C]_F4.1_[T8C]_[A9C]_T4.1 (ssRNA)
RNA: B1 RNA with G33A, U34C, A35C, U36C
B33: Ic_S2_P4E.1_K4.1_C4.1_H4.1_A4.1_[A6T]_[T7A]_F4.1_[T8A]_[A9T]_T4.1 (ssRNA)
RNA: B1 RNA with G33U, U34A
B34: Ic_S2_P4E.1_K4.1_C4.1_H4.1_A4.1_[A6C]_F4.1_[T8G]_[A9T]_T4.1 (ssRNA)
RNA: B1 RNA with G33C, A35G
B35: Ic_S2_P4E.1_K4.1_C4.1_H4.1_A4.1_[A6T]_[T7G]_F4.1_[A9T]_T4.1 (ssRNA)
RNA: B1 RNA with G33U, U34G, A35U
B36: Ic_S2_P4E.1_K4.1_C4.1_H4.1_A4.1_[A6T]_[T7G]_F4.1_[T8C]_T4.1 (ssRNA)
RNA: B1 RNA with G33U, U34G, A35C, U36A
B37: Ic_S2_P4E.1_K4.1_C4.1_H4.1_A4.1_[A6C]_[T7A]_F4.1_[T8C]_[A9G]_T4.1 (ssRNA)
RNA: B1 RNA with G33C, U34A, A35C, U36G
B38: Ic_S2_P4E.1_K4.1_C4.1_H4.1_A4.1_[A6T]_[T7C]_F4.1_[T8G]_[A9T]_T4.1 (ssRNA)
RNA: B1 RNA with G33U, U34C, A35G
B39: Ic_S2_P4E.1_K4.1_C4.1_H4.1_A4.1_[A6T]_[T7C]_F4.1_[T8C]_[A9C]_T4.1 (ssRNA)
RNA: B1 RNA with G33U, U34C, A35C, U36C
B40: Ic_S2_P4E.1_K4.1_C4.1_H4.1_A4.1_[A6T]_[T7A]_F4.1_[T8C]_[A9G]_T4.1 (ssRNA)
RNA: B1 RNA with G33U, U34A, A35C, U36G
B41: Ic_S2_P4E.1_K4.1_C4.1_H4.1_A4.1_[A6C]_F4.1_[T8A]_[A9T]_T4.1 (ssRNA)
RNA: B1 RNA with G33C
B42: Ic_S2_P4E.1_K4.1_C4.1_H4.1_A4.1_[A6T]_[T7G]_F4.1_[A9C]_T4.1 (ssRNA)
RNA: B1 RNA with G33U, U34G, A35U, U36C
B43: Ic_S2_P4E.1_K4.1_C4.1_H4.1_A4.1_[A6T]_F4.1_[T8C]_[A9T]_T4.1 (ssRNA)
RNA: B1 RNA with G33U, A35C
B44: Ic_S2_P4E.1_K4.1_C4.1_H4.1_A4.1_[A6C]_[T7C]_F4.1_[T8G]_[A9C]_T4.1 (ssRNA)
RNA: B1 RNA with G33C, U34C, A35G, U36C
B45: Ic_S2_P4E.1_K4.1_C4.1_H4.1_A4.1_[A6C]_F4.1_[T8C]_[A9T]_T4.1 (ssRNA)
RNA: B1 RNA with G33C, A35C
B46: Ic_S2_P4E.1_K4.1_C4.1_H4.1_A4.1_[A6C]_[T7A]_F4.1_[A9T]_T4.1 (ssRNA)
RNA: B1 RNA with G33C, U34A, A35U
B47: Ic_S2_P4E.1_K4.1_C4.1_H4.1_A4.1_[A6C]_[T7C]_F4.1_[T8C]_[A9T]_T4.1 (ssRNA)
RNA: B1 RNA with G33C, U34C, A35C
B48: Ic_S2_P4E.1_K4.1_C4.1_H4.1_A4.1_[A6T]_[T7C]_F4.1_[T8A]_[A9C]_T4.1 (ssRNA)
RNA: B1 RNA with G33U, U34C, U36C
B49: Ic_S2_P4E.1_K4.1_C4.1_H4.1_A4.1_[A6T]_[T7C]_F4.1_[T8C]_[A9G]_T4.1 (ssRNA)
RNA: B1 RNA with G33U, U34C, A35C, U36G

target: T1, PUF4 RNA-binding domain; assay: Mg; RNA-MaP; 20 mM Na-HEPES pH 7.4, 30 mM KOAc, 0.75 mM MgCl2, 0.1% Tween-20, 5% glycerol, 0.1 mg/mL BSA, 2 mM DTT; 25 C; 0.0125-409.6 nM protein; details: tags: N-His6-TEV cleaved; C-SNAP kept, Cy3B-labelled; label: tethered on chip by stalled RNA polymerase

Row | Binder | Kd [nM]
1 | UCUCUUUGUAUAUCCUCUCUU (ssRNA) [Ib_S1_P4E.1_K4.1_C4.1_H4.1_A4.1_F4.1_[T8C]_[A9C]_T4.1] | 18.9
2 | UCUCUUUGUAUAUCGUCUCUU (ssRNA) [Ib_S1_P4E.1_K4.1_C4.1_H4.1_A4.1_F4.1_[T8C]_[A9G]_T4.1] | 26.1
3 | UCUCUUUGUAUAUCUUCUCUU (ssRNA) [Ib_S1_P4E.1_K4.1_C4.1_H4.1_A4.1_F4.1_[T8C]_[A9T]_T4.1] | 13.4
4 | UCUCUUUGUAUAUAUUCUCUU (ssRNA) [Ic_S1_P4E.1_K4.1_C4.1_H4.1_A4.1_F4.1_[T8A]_[A9T]_T4.1] | 3.56
5 | UCUCUUUGUAUAUACUCUCUU (ssRNA) [Ib_S1_P4E.1_K4.1_C4.1_H4.1_A4.1_F4.1_[T8A]_[A9C]_T4.1] | 8.2
6 | B1 | 26.9
7 | B2 | 350
8 | B3 | 1200
9 | B4 | 507
10 | B5 | 201
11 | B6 | 106
12 | B7 | 309
13 | B8 | 53.8
14 | B9 | 23.6
15 | B10 | 685
16 | B11 | 149
17 | B12 | 32.9
18 | B13 | 536
19 | B14 | 347
20 | B15 | 27.5
21 | B16 | 89.9
22 | B17 | 195
23 | B18 | 76.1
24 | B19 | 28.4
25 | B20 | 820
26 | B21 | 866
27 | B22 | > 2300

Row | Binder | Kd [nM]
28 | B23 | 55.7
29 | B24 | 12.7
30 | B25 | 369
31 | B26 | 4.75
32 | B27 | 52.7
33 | B28 | 59.3
34 | B29 | 9.81
35 | B30 | 4.55
36 | B31 | 645
37 | B32 | 31.3
38 | B33 | 78.2
39 | B34 | 17.9
40 | B35 | 57
41 | B36 | 742
42 | B37 | 228
43 | B38 | 112
44 | B39 | 162
45 | B40 | 93.7
46 | B41 | 7.99
47 | B42 | 127
48 | B43 | 21.7
49 | B44 | 800
50 | B45 | 17.7
51 | B46 | 3.46
52 | B47 | 166
53 | B48 | 595
54 | B49 | 168
